Legend:
[1] = target: S1(349-590)-hFc (MERS-CoV; human); experiment: BLI (Octet RED96), wild type RBD-hFc
[2] = target: hDPP4 Cells (human) (UniProt P27487); experiment: FACS; settings: Fc fusion
hDPP4 Cells (human), sequence (P27487 whole entry, the tested form may be a part): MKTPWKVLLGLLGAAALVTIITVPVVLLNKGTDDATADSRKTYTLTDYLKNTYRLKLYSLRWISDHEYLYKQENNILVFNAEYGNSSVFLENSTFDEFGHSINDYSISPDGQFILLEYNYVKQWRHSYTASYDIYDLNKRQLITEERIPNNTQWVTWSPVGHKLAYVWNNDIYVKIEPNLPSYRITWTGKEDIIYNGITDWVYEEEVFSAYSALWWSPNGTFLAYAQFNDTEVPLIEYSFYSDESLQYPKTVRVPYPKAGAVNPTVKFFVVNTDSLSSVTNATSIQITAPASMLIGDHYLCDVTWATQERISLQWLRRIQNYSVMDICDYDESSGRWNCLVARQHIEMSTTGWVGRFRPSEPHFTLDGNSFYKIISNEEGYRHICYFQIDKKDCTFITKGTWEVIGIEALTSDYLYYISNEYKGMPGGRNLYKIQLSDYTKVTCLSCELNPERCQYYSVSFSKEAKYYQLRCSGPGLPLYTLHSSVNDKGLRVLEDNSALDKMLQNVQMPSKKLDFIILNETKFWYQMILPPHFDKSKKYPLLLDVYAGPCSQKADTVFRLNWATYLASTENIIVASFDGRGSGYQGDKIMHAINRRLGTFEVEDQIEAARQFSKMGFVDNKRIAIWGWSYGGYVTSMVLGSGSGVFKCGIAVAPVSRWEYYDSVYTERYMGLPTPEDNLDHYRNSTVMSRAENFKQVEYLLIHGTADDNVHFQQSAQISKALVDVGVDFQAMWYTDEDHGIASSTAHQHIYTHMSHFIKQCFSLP

Row | Substance | Kd [1] [nM] | EC50 [2] [µg/mL]
1 | Recombinant soluble human DPP4 (from UniProt P27487 29-766) (receptor) | 21.4 | –
2 | Wt. RBD | – | 0.015
